Literature values as cited in PMC9477365.
pKd: −log10 of the molar value.

How the values were obtained:
[1] = biological target: fibrin (E domain site) E domain (Homo sapiens) (UniProt P02671)
[2] = biological target: fibrin (gamma' site) gamma' chain (Homo sapiens) (UniProt P02671)

pKd [1]: 5.55
pKd [2]: 5.05
Substance: thrombin (from UniProt P00734)
